Assay [1] has as its target T1, recombinant HMG1 purified from E. coli as a calmodulin binding protein (CBP) fusion protein (human, UniProt A9RA84 1-215 (Papio anubis entry)).
T1 construct: also called rHMG1; rHMGB1
T1 sequence: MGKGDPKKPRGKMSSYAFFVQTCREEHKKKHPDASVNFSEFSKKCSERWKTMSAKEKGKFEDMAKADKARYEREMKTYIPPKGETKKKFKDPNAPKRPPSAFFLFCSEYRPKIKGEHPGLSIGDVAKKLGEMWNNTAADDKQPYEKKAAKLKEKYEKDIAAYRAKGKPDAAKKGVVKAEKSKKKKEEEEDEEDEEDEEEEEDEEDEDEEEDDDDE
As to the kind of experiment: ELISA format 'Soluble HMG1/Captured Antibody' (squares): antibody captured on anti-human IgG Fc, HMG1 in solution. Here is the method:
Sandwich ELISA (soluble HMG1): Immunoplates (EIA/RIA plate, High binding, Costar) were coated with anti human IgG Fc at 10 μg/ml in PBS (pH 7.2) and incubated at 4° C. overnight. The coating reagent was removed and the plates were rinsed briefly with PBS. The plates were then blocked with 4% milk for 1 hour at 37° C. and rinsed with PBS. The anti-HMG1 antibodies were diluted in 4% milk. For serial dilutions, the antibodies were used at a starting concentration of 20 μg/ml. The diluted anti-HMG1 antibodies were then added into plate and incubated for 1 hr at 37° C. The plate was then washed 10 times with PBST (PBS/0.1% tween 20) and incubate with antigen (HMGB1, 2 μg/ml; or 0.7 μg/ml for native HMGB1) in 4% milk and incubated at 37° C. for 1 h. The plate was then wash 10 times and incubated with mouse anti-HMGB1, 1 μg/ml in 4% milk at 37° C. for 1 h. The plate was washed 10 times and incubated with anti-mouse IgG-HRP at 1:1000 at 37° C. for 1 h. The plate was then washed and developed. HRP activity was detected with Sureblue HRP substrate (KPL). Plates were read at 450 nm using a Kinetic Microplate Reader (Molecular Devices).

The target in assay [2] is T2, HMG1 B Box peptide amino acids 91-169.
T2 construct: also called HMG1 peptide 91-169
T2 peptide: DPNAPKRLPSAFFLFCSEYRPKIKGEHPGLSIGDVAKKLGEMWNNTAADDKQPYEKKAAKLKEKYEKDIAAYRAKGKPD
As to the kind of experiment: ELISA, wells coated with HMG1 B Box peptide 91-169 at 10 ug/ml. Here is the method:
(§1) The plate was then blocked with 4% milk powder dissolved in PBS at 37° C. for 1 hour. The blocking solution was removed and replaced with human anti-HMG1 antibodies at various concentrations (see FIGS. 5A-B). […] HRP activity was detected with Sureblue HRP substrate (KPL). Plates were read at 450 nm using a Kinetic Microplate Reader (Molecular Devices). […] After washing and blocking with 1% BSA in PBS, the biotinylated peptides were individually added into the avidin coated wells and incubated for 30 min at room temperature. The serial diluted antibody G4, S16 and S6 at the initial concentration at 10 μg/ml were then transferred into the wells followed by adding mouse anti human IgG-HRP conjugate (Pierce). Detection was accomplished by adding 50 μl of tetramethylbenzidine (TMB) substrate (KPL) and the absorbance was read at […].

In assay [3] the target is T3, activated HMG1 prepared from LPS stimulated THP-1 cells (human, UniProt P09429 1-215).
T3 sequence (looked up): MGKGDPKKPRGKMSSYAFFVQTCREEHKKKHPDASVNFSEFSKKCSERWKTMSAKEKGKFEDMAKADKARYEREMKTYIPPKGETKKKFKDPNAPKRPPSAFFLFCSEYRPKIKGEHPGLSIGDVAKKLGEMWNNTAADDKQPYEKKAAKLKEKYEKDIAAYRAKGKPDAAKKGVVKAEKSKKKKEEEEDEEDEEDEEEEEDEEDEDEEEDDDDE
As to the kind of experiment: cell-based or functional assay.

The target in assay [4] is T1, recombinant HMG1 purified from E. coli …. As to the kind of experiment: cell-based or functional assay.
For assay [5], the target named is T4, HMG1 B Box peptide amino acids 150-183.
T4 peptide: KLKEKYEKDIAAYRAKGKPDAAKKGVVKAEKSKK
As to the kind of experiment: ELISA, wells coated with HMG1 B Box peptide 150-183 at 10 ug/ml. Here is the method:
as §1

Assay [6] deals with T5, HMG1 purified from bovine (calf) thymus (bovine, UniProt P10103 2-215).
T5 construct: also called Calf thymus HMGB1; thymus HMG1
T5 sequence (looked up): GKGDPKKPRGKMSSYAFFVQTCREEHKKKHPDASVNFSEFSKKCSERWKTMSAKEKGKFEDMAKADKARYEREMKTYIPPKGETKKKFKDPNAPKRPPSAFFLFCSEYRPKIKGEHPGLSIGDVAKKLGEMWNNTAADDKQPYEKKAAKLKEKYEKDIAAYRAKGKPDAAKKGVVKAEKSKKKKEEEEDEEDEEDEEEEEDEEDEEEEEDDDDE
As to the kind of experiment: ELISA, wells coated with calf thymus HMGB1 at 5 ug/mL, antibody at 10 ug/mL, anti-human kappa/lambda-HRP, OD 490. The protocol:
Binding to HMG1 vs. HMG2: Ultra high-binding ELISA plates (ThermoLab systems, #3855) were coated with either 5 ug/mL of Calf thymus HMGB1 or HMBG2 diluted in 10 mM Phosphate buffered saline (PBS), pH 7.2 and incubate overnight at 4 degrees. The plates were washed twice with Ca and Mg free PBS and 100 microliters of anti-HMGB1 antibody diluted in 10 mM PBS, pH 7.2+1% bovine serum albumin (BSA) to a final concentration of 10 ug/mL was added to each well and the plates were incubated 1 hour at room temperature. The wells were washed three times with 100 μl of PBS, pH 7.2. HRP labeled goat-anti-human IgG Kappa-chain (KPL, #14-10-10) and goat-anti-human IgG Lambda-chain (KPL, #14-10-11) were diluted in 10 mM PBS+1% BSA 1:1000 and 100 μl were added to each well and incubated for 1 hour at room temperature. The wells were then washed three times with 100 μl of PBS, pH 7.2. OPD substrate (Pierce chemical company, #34006) was prepared following the manufacturers instructions and 100 μl of prepared substrate was added to each well and the plates incubated at room temperature in the dark for 20-30 minutes. The reaction was stopped with the addition of 100 μl of 2M H₂SO₄, and the plates read on a plate reader at a wavelength of 490 nm.

For assay [7], the target named is T6, recombinant rat HMGB-1, Europium-labeled (rat, UniProt P63159 1-215, limits assumed, Europium label, molar ratio of HMGB-1 to Eu 1:5).
T6 construct: also called Europium-labeled HMGB-1; recombinant HMG1 (Thp-1 assay)
T6 sequence (looked up): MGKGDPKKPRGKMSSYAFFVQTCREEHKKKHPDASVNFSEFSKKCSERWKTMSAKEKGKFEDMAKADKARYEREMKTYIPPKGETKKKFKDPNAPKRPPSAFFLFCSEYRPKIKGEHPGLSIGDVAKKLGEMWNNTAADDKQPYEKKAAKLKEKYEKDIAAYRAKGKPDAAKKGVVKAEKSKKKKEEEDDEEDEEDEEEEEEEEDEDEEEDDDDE
As to the kind of experiment: inhibition of binding of Eu-labeled HMGB-1 to THP-1 cells. Here is the method:
HMG1 binding to THP-1 Cells: Recombinant rat HMGB-1 was labeled using Eu-labelling Kit from PerkinElmer. Molar ratio of HMGB-1 to Eu is 1:5. THP-1 were cultured as the protocol from ATCC. Cells were harvested and suspended at concentration 1×10⁶/ml in assay buffer containing 1×DELFIA L*R binding buffer (PerkinElmer), 50% of DELFIA stabilizer (PerkinElmer) and 0.05% of sodium azide. 100 μl of cells (1×10⁵) was added into wells in 96 well cell culture plate. The plate was incubated with gentle shaking at 4° C. for one hour. 100 μl of assay buffer containing 2 nM of Europium-labeled HMGB-1 mixed with various concentrations (333, 166.5, 83.25, 41.6, 20.8, 10.4 and 5.2 nM) of human anti-HMGB1 antibodies E11 or G2 or soluble human RAGE-Fc, were added into each wells respectively. After one hour incubation with gentle shaking at 4° C., the cells were washed four times with 1×L*R wash buffer (PerkinElmer) by centrifuging at 1200 rpm×5 min. 200 μl of enhancement solution was added into each well to dissociate and enhance Eu fluorescence at 615 nm. The fluorescence was measured with Wallac Victor Fluorometer. Assay was performed in triplicate and human antibody R3-47 was used the negative isotype control.

Assay [8] has as its target T7, HMGB1 in human brain tissue of multiple sclerosis plaques (human, UniProt P09429 1-215).
T7 construct: also called HMGB1 (MS plaques)
T7 sequence (looked up): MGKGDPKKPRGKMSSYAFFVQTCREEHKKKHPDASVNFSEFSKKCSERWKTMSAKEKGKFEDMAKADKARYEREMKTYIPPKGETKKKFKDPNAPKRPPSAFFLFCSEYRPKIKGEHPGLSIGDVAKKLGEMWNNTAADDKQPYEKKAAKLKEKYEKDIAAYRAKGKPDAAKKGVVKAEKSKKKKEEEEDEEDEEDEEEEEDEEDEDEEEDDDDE
As to the kind of experiment: staining of human brain tissue.

The target of assay [9] is T1, recombinant HMG1 purified from E. coli …. As to the kind of experiment: BIAcore, mAb immobilized, HMG1 injected, steady-state model. Here is the method: HMG1 Binding Affinity via BIAcore Analysis: All experiments were performed on a BIAcore 3000 instrument (BIAcore, Inc., Piscataway, N.J.). Briefly, each mAb was immobilized to a CM5 sensor chip using a standard amino coupling chemistry. Separately a reference (control) flow cell was also prepared. Two-fold, serial dilutions of HMG1 in instrument buffer were sequentially injected at a slow flow rate over the individual mAb and reference flow-cell surfaces. Following the binding and dissociation of HMG1, the mAbs surfaces were regenerated with a brief pulse of 1M NaCl-50 mM NaOH. At the end of each experiment, the binding curves were evaluated using a steady-state model available through the BIA evaluation software supplied by BIAcore, Inc. (Piscataway, N.J.).

The target in assay [10] is T2, HMG1 B Box peptide amino acids 91-169. As to the kind of experiment: ELISA, wells coated with HMG1 B Box peptide 91-169 at 10 ug/ml, anti-human IgG-HRP, OD 450. The protocol:
as §1

The target of assay [11] is T4, HMG1 B Box peptide amino acids 150-183. As to the kind of experiment: ELISA, wells coated with HMG1 B Box peptide 150-183 at 10 ug/ml, anti-human IgG-HRP, OD 450. Here is the method:
as §1

Another assay addresses T8, Mouse RAGE/Fc (mouse, UniProt Q62151 24-342).
T8 construct: also called RAGE/Fc fusion; not shown: Fc part not described
As to the kind of experiment: ELISA, HMGB1 titrated on RAGE-Fc in the presence of 0.03 µM CpG-A (right panel).

T8 sequence (Q62151 24-342): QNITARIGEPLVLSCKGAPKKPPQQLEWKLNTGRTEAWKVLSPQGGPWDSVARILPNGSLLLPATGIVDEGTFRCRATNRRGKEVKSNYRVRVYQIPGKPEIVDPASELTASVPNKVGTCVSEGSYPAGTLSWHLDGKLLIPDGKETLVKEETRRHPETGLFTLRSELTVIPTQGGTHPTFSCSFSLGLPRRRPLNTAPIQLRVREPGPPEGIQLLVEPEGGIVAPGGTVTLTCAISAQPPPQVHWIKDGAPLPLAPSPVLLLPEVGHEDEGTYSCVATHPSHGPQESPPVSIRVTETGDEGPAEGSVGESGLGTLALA

B1: anti-HMG1 antibody E11 (antibody, V domains shown)
VH: EVQLLESGGGLVQPGGSLRLSCAASGFTFSRYQMNWVRQAPGKGLEWVSSISPSGGHTHYADSVKGRFTISRDNSKNTLYLQMNSLRAEDTAVYYCAKDGRQGKISTVDHWGQGTLVTVSS
VL: DIQMTQSPGTLSLSPGERATLSCRASQSVRSNFLAWYQQKPGQAPRLLIYGASRRASGIPDRFSGSGFGADFTLSISRLEPEDFAVYYCQQYGSSPNTFGQGSRVEIK
In the case of B1, the half-maximal effective concentration (EC50 (read off the curve)) in assay [1] is about 0.4 µg/mL. Further, the binding result in assay [2] is “no binding (tested: 10 ug/ml (log 1.00))”; in assay [5], “no binding (tested: 10 ug/ml (log 1.00))”; in [6], “binds”. The “IC50, inhibition of native activated HMG1 stimulated IL-6 release from human PBMC” value in [3] came out at 1.73 nM. Moreover, in assay [4], the “IC50, inhibition of HMG1 stimulated NO release from macrophages” value stood at 101 µg/mL. Moreover, the “IC50, inhibition of rHMG1 stimulated IL-6 release from human PBMC” value in [4] was 1.22 nM. For the same molecule, the half-inhibitory concentration (IC50) in [7] stood at 48.1 nM.

B2: anti-HMG1 antibody G16 (antibody, V domains shown)
VH: EVQLLESGGGLVQPGGSLRLSCAASGFTFSWYKMTWVRQAPGKGLEWVSSISPSGGFTSYADSVKGRFTISRDNSKNTLYLQMNSLRAEDTAVYYCARDLDIRHAFDIWGQGTMVTVSS
VL: DIQMTQSPGTLSLSPGESGTLSCRASESVSSRHFAWYQQKPGQAPRLLIYGASSRPTGIPDRFSGSGSGTDFTLTLSRLEPEDFAVYFCQYYGSSPYTFGGGTKVEMK
Turning to B2, the binding result in assay [8] is on record as “binds”; in [2], “no binding (tested: 10 ug/ml (log 1.00))”; in [5] it was “no binding (tested: 10 ug/ml (log 1.00))”. Moreover, the dissociation constant Kd in assay [9] was found to be 22 nM. Further, the “IC50, inhibition of HMG1 stimulated NO release from macrophages” value in [4] amounted to 22 µg/mL. For the same molecule, in assay [4], the “IC50, inhibition of rHMG1 stimulated IL-6 release from human PBMC” value stood at 1.06 nM.

B3: anti-HMG1 antibody S12 (antibody, V domains shown)
VH: EVQLLESGGGLVQPGGSLRLSCAASGFTFSKYIMHWVRQAPGKGLEWVSGIVPSGGLTEYADSVKGRFTISRDNSKNTLYLQMNSLRAEDTATYYCAKEIFGQFDYWGQGTLVTVSS
VL: AQSALTQPPSVSAAPRQRVTISCSGSTSNIGNNAVTWYQYFPGKAPKLLIYSDNQRPSGVPDRFSGSKSGTSASLAITGLQAEDEADYYCQSYDRGLSVVFGGGTKLTVL
As to B3, the binding result in [10], in [11] and in [6] was “binds” each time. Further, in assay [4], the “IC50, inhibition of rHMG1 stimulated IL-6 release from human PBMC” value worked out at 1.67 nM.

B4: HMGB1/CpG-A complex (other, bovine, UniProt P10103 2-215, looked up)
chain: GKGDPKKPRGKMSSYAFFVQTCREEHKKKHPDASVNFSEFSKKCSERWKTMSAKEKGKFEDMAKADKARYEREMKTYIPPKGETKKKFKDPNAPKRPPSAFFLFCSEYRPKIKGEHPGLSIGDVAKKLGEMWNNTAADDKQPYEKKAAKLKEKYEKDIAAYRAKGKPDAAKKGVVKAEKSKKKKEEEEDEEDEEDEEEEEDEEDEEEEEDDDDE
notes: also called HMGB1/CpG complex; CpG/HMGB1 complex
On to B4, for which the “EC50 (read off the curve)” value in the assay with Mouse RAGE/Fc is about 0.1 µM.

The values above are taken from patent US20080311122A1 (AstraZeneca / MedImmune, published 2008).
